From article PMC4352895, “Jarid2 Methylation via the PRC2 Complex Regulates H3K27me3 Deposition during Cell Differentiation” (Molecular Cell, 2015)

What was measured:
PRC2 = PRC2 HKMT activity with Jarid2 fragments (aa 109–450), recombinant or native chromatin; format: biochemical; details: native chromatin; equimolar amounts of Jarid2 fragments aa 109–450; n = 3
Description: Figure 5 Jarid2 Methylation Regulates PRC2 Enzymatic Activity Depending on Chromatin Environment (A) HKMT assay performed with PRC2-Ezh2 on recombinant oligonucleosomes in the presence of peptides mimicking either Jarid2-K116me2 and me3 or H3K27me3. (B) HKMT assay as in (A) performed with PRC2-Ezh2 reconstituted with either Eed WT or F97A. (C) Table indicating the sequences of the peptides and the relative dissociation constant Kd (μM) for ΔEed binding measured by ITC. (D) Ribbons representation of ΔEed-Jarid2-K116me3 and ΔEed-H3K27me3 complexes. Eed is in gray; Jarid2 peptide is in yellow while H3 peptide is in purple, both in stick representation. Eed aromatic amino acids are in stick and cyan color. Top: top views. Bottom: zoom-in of side views. (E) HKMT assay as in (A) in presence of peptides Jarid2-K116me3 WT or F117A. (F) Left: representation of the chimeric proteins used in the HKMT assay. The red cross indicates the point mutations introduced in the protein to perform native chemical ligation. […] Right: quantification of PRC2-HKMT activity in the presence of the three Jarid2 fragments (mean ± SD, n = 3). […]
The N-terminal region of Jarid2 comprises distinct domains for both PRC2 and chromatin interactions ([Son et al., 2013]). […] We then monitored PRC2 enzymatic activity on recombinant or native nucleosomes either alone or in the presence of equimolar amounts of Jarid2 fragments (Figure 5F). […]

PRC2-Ezh2 = assay: HKMT assay, PRC2-Ezh2 with Jarid2 fragments, titration of H3K27me3 octamers in recombinant chromatin; format: biochemical; details: recombinant chromatin with increasing amount of H3K27me3 octamers
Description: Figure 5 Jarid2 Methylation Regulates PRC2 Enzymatic Activity Depending on Chromatin Environment (A) HKMT assay performed with PRC2-Ezh2 on recombinant oligonucleosomes in the presence of peptides mimicking either Jarid2-K116me2 and me3 or H3K27me3. (B) HKMT assay as in (A) performed with PRC2-Ezh2 reconstituted with either Eed WT or F97A. (C) Table indicating the sequences of the peptides and the relative dissociation constant Kd (μM) for ΔEed binding measured by ITC. (D) Ribbons representation of ΔEed-Jarid2-K116me3 and ΔEed-H3K27me3 complexes. Eed is in gray; Jarid2 peptide is in yellow while H3 peptide is in purple, both in stick representation. Eed aromatic amino acids are in stick and cyan color. Top: top views. Bottom: zoom-in of side views. (E) HKMT assay as in (A) in presence of peptides Jarid2-K116me3 WT or F117A. (F) Left: representation of the chimeric proteins used in the HKMT assay. The red cross indicates the point mutations introduced in the protein to perform native chemical ligation. Red circle indicates K116me3. Right: quantification of PRC2-HKMT activity in the presence of the three Jarid2 fragments (mean ± SD, n = 3). […]
To evaluate a potential competition between H3K27me3 and Jarid2-K116me3, we reconstituted chromatin in presence of increasing ratios of octamers fully methylated on K27 and monitored PRC2 activity in presence of Jarid2 fragments (Figure 5G). […]

B1: fully methylated Jarid2 fragment: peptide containing aa 109–123 (K116me3) coupled through native chemical ligation with the aa 124–450 fragment (protein, UniProt Q92833 109-450, looked up, fragment)
chain: PRLQAQRKFAQSQPNSPSTTPVKIVEPLLPPPATQISDLSKRKPKTEDFLTFLCLRGSPALPNSMVYFGSSQDEEEVEEEDDETEDVKTATNNASSSCQSTPRKGKTHKHVHNGHVFNGSSRSTREKEPVQKHKSKEATPAKEKHSDHRADSRREQASANHPAAAPSTGSSAKGLAATHHHPPLHRSAQDLRKQVSKVNGVTRMSSLGAGVTSAKKMREVRPSPSKTVKYTATVTKGAVTYTKAKRELVKDTKPNHHKPSSAVNHTISGKTESSNAKTRKQVLSLGGASKSTGPAVNGLKVSGRLNPKSCTKEVGGRQLREGLQLREGLRNSKRRLEEAHQA
modifications: K116 trimethyl
notes: peptide containing aa 109–123 (K116me3) coupled through native chemical ligation with the aa 124–450 fragment
PRC2
  stimulation of PRC2 enzymatic activity relative to K116A or K116R fragments, result in words: this stimulation was lost
PRC2-Ezh2
  effect of H3K27me3 titration on Jarid2-mediated stimulation of PRC2, result in words: no effect on the stimulation of PRC2 mediated by Jarid2
